Measured values as given in patent US20230212319A1, “NOVEL ANTIGEN BINDING DOMAINS AND SYNTHETIC ANTIGEN RECEPTORS INCORPORATING THE SAME” (University of Southern California, priority 2020, published 2023).

B1: SEQ ID NO: 22287: NKG2D-YA-G4Sx3-NKG2D-YA domain attached to the hu-mROO5-1 vH fragment of an Ab-TCR via a G4S linker (protein)
chain: MALPVTALLLPLALLLHAARPACEVQLLESGGGLIQPGGSLRLSCAASGFTFSSHAMTWVRQAPGKGLEWVSAISGSGDYTHYADSVKGRFTISRDNSKNTVYLQMNSLRAEDSAVYYCAKDEDGGSLLGHRGQGTLVTVSSGTGGGGSGGGGSGGGGSEFDIQMTQSPSSLSASVGDRVTITCKASDHINNWLAWYQQKPGQAPKLLIYGATTLETGVPSRFSGSGSGTDYTLTISSLQPEDFATYYCQQSWNTPWTFGQGTKLEIKRLEGQPKANPTVTLFPPSSEELQANKATLVCLISDFYPGAVTVAWKADGSPVKAGVETTKPSKQSNNKYAASSYLSLTPEQWKSHRSYSCQVTHEGSTVEKTVAPTECSGRADCGFTSESYQQGVLSATILYEILLGKATLYAVLVSALVLMAMVKRKDSRGRAKRSGSGATNFSLLKQAGDVEENPGPTSTMDWIWRILFLVGAATGAHSLFNQEVQIPLTESYCGPCPKNWICYKNNCYQFFDESKNWYESQASCMSQNASLLKVYSKEDQDLLKLVKSAHWMGLVHIPTNGSWQWEDGSILSPNLLTIIEMQKGDCALYASSFKGYIENCSTPNTYICMQRTVSGGGGSGGGGSGGGGDLFNQEVQIPLTESYCGPCPKNWICYKNNCYQFFDESKNWYESQASCMSQNASLLKVYSKEDQDLLKLVKSAHWMGLVHIPTNGSWQWEDGSILSPNLLTIIEMQKGDCALYASSFKGYIENCSTPNTYICMQRTVGSGGGGSGGGGSGGGGSFEQVQLQQPGAELVKPGASVKMSCKASGYAFSSYWINWMKQKPGQGLEWIGQIYPGDGDTNYNGKFKGRATLTADTSSSTAYMQLSSLTSEDSAVYFCARSITTVVGCAMDYWGQGTSVTVSSTRASTKGPSVFPLAPSSKSTSGGTAALGCLVKDYFPEPVTVSWNSGALTSGVHTFPAVLQSSGLYSLSSVVTVPSSSLGTQTYICNVNHKPSNTKVDKRVEPKSCIPEDTFFPSPESSCDVKLVEKSFETDTNLNFQNLSVIGFRILLLKVAGFNLLMTLRLWSSRAKRSGSGVKQTLNFDLLKLAGDVESNPGPSRGHMTEYKPTVRLATRDDVPRAVRTLAAAFADYPATRHTVDPDRHIERVTELQELFLTRVGLDIGKVWVADDGAAVAVWTTPESVEAGAVFAEIGPRMAELSGSRLAAQQQMEGLLAPHRPKEPAWFLATVGVSPDHQGKGLGSAVVLPGVEAAERAGVPAFLETSAPRNLPFYERLGFTVTADVEVPEGPRTWCMTRKPGA
B2: 22055 (protein)
chain: MALPVTALLLPLALLLHAARPQLQLQESGPGLVKPSETLSLTCTVSGDSISSGDYYWGWIRQPPGKGLEWIGHIYYSGVTYYNPSLKSRVTISVDTSRNQFSLKLSSVTAADTAVYYCTREDSSNWRSRGQGTLVTVSSLEGSEVKTDSTDHVKPKETENTKQPSKSCHKPKAIVHTEKVNMMSLTVLGLRMLFAKTVAVNFLLTAKLFFLRAKRSGSGVKQTLNFDLLKLAGDVESNPGPTSMDWIWRILFLVGAATGAHSFEVQLVESGGGVVQPGRSLRLSCAASGFSFSGYGMHWVRQAPGKGLEWVAYISYDGSNKYYADSVKGRFTISRDNSKNTLYLQMNSLRAEDTAVYYCAKDPAWGLRLGESSSYDFDIWGQGTMVTVSSTRGSGRADCGFTSESYQQGVLSATILYEILLGKATLYAVLVSALVLMAMVKRKDSRGRAKRSGSGATNFSLLKQAGDVEENPGPSRGHMTEYKPTVRLATRDDVPRAVRTLAAAFADYPATRHTVDPDRHIERVTELQELFLTRVGLDIGKVWVADDGAAVAVWTTPESVEAGAVFAEIGPRMAELSGSRLAAQQQMEGLLAPHRPKEPAWFLATVGVSPDHQGKGLGSAVVLPGVEAAERAGVPAFLETSAPRNLPFYERLGFTVTADVEVPEGPRTWCMTRKPGA
B3: 22043 (protein)
chain: MALPVTALLLPLALLLHAARPQLQLQESGPGLVKPSETLSLTCTVSGDSISSGDYYWGWIRQPPGKGLEWIGHIYYSGVTYYNPSLKSRVTISVDTSRNQFSLKLSSVTAADTAVYYCTREDSSNWRSRGQGTLVTVSSLEDKTHTCPPCPAPIKTDVITMDPKDNCSKDANDTLLLQLTNTSAYYMYLLLLLKSVVYFAIITCCLLRRTAFCCNGEKSRAKRSGSGATNFSLLKQAGDVEENPGPTSMDWIWRILFLVGAATGAHSFEVQLVESGGGVVQPGRSLRLSCAASGFSFSGYGMHWVRQAPGKGLEWVAYISYDGSNKYYADSVKGRFTISRDNSKNTLYLQMNSLRAEDTAVYYCAKDPAWGLRLGESSSYDFDIWGQGTMVTVSSTRDKTHTCPPCPAIPEDTFFPSPESSCDVKLVEKSFETDTNLNFQNLSVIGFRILLLKVAGFNLLMTLRLWSSRAKRSGSGVKQTLNFDLLKLAGDVESNPGPSRGHMTEYKPTVRLATRDDVPRAVRTLAAAFADYPATRHTVDPDRHIERVTELQELFLTRVGLDIGKVWVADDGAAVAVWTTPESVEAGAVFAEIGPRMAELSGSRLAAQQQMEGLLAPHRPKEPAWFLATVGVSPDHQGKGLGSAVVLPGVEAAERAGVPAFLETSAPRNLPFYERLGFTVTADVEVPEGPRTWCMTRKPGA
B4: SEQ ID NO: 22288: SAR with adaptor binding domain (Table 48) (protein)
chain: MALPVTALLLPLALLLHAARPACLFNQEVQIPLTESYCGPCPKNWICYKNNCYQFFDESKNWYESQASCMSQNASLLKVYSKEDQDLLKLVKSAHWMGLVHIPTNGSWQWEDGSILSPNLLTIIEMQKGDCALYASSFKGYIENCSTPNTYICMQRTVLEGQPKANPTVTLFPPSSEELQANKATLVCLISDFYPGAVTVAWKADGSPVKAGVETTKPSKQSNNKYAASSYLSLTPEQWKSHRSYSCQVTHEGSTVEKTVAPTECSPIKTDVITMDPKDNCSKDANDTLLLQLTNTSAYYMYLLLLLKSVVYFAIITCCLLRRTAFCCNGEKSRAKRSGSGATNFSLLKQAGDVEENPGPTSATMDWIWRILFLVGAATGAHSGPQVQLQESGGGLAQAGGSLRLSCAASGRTFSMGWFRQAPGKEREFVAAITYSGGSPYYASSVRGRFTISRDNAKNTVYLQMNSLKPEDTAVYYCAANPTYGSDWNAENWGQGTQVTVSSGSGGGGSGGGGSGGGGSFEDLFNQEVQIPLTESYCGPCPKNWICYKNNCYQFFDESKNWYESQASCMSQNASLLKVYSKEDQDLLKLVKSAHWMGLVHIPTNGSWQWEDGSILSPNLLTIIEMQKGDCALYASSFKGFIENCSTPNTYICMQRTVTRASTKGPSVFPLAPSSKSTSGGTAALGCLVKDYFPEPVTVSWNSGALTSGVHTFPAVLQSSGLYSLSSVVTVPSSSLGTQTYICNVNHKPSNTKVDKRVEPKSCEVKTDSTDHVKPKETENTKQPSKSCHKPKAIVHTEKVNMMSLTVLGLRMLFAKTVAVNFLLTAKLFFLRAKRSGSGVKQTLNFDLLKLAGDVESNPGPSRGHMTEYKPTVRLATRDDVPRAVRTLAAAFADYPATRHTVDPDRHIERVTELQELFLTRVGLDIGKVWVADDGAAVAVWTTPESVEAGAVFAEIGPRMAELSGSRLAAQQQMEGLLAPHRPKEPAWFLATVGVSPDHQGKGLGSAVVLPGVEAAERAGVPAFLETSAPRNLPFYERLGFTVTADVEVPEGPRTWCMTRKPGA

How the values were obtained:
LNCaP cells = assay: JNG assay, co-culture with LNCaP cells; assay type: cell-based; conditions: for GFP induction: LNCaP cells, only in the presence of SAR-adaptor PSMA-USC76-chVH-G4S-ULBP2-S3 (SEQ ID NO: 23114); for NFAT-GFP ASSAY: LNCaP: co-culture with LNCaP
Experimental: Cellular supernatant is collected and assayed for the induction of cytokines (e.g., IL2).
JNG (Jurkat cells expressing EGFP under an NFAT promoter) were infected with lentiviral vectors encoding different single chain and multi-chain SARs by spinfection in the presence of 8 µg/ml of Polybrene® (Sigma, Catalog no. H9268). The Jurkat-NFAT-GFP cells are engineered in such a way that the IL-2 promoter, which carries NFAT binding sites, is cloned upstream of the GFP gene. These cells have been used to study signaling via TCR and CAR. The different SARs were stably expressed in Jurkat NFAT-GFP cells by lentiviral mediated gene transfer, followed by selection with puromycin or blasticidin. No drug selection was used in case the construct lacked an antibiotic resistance gene. The SAR-expressing Jurkat-NFAT-GFP cells were cocultured with the target cells at E:T ratio of approximately 1:2 for approximately 4 hours to 18 hours. When the interaction between SIRs and their target antigen results in activation of the NFAT pathway, GFP expression is induced. […] GFP expression was monitored by FACS analysis. The Jurkat-NFAT-GFP (parental) cells were used as control. The structure of different constructs can be determined based on their names. For example, the construct CD8SP-CD19-hu-mROO5-1-vL-[hTCRa-C SDVP]-F-F2A-Spe-IgHSP-Apa-CD20-vHH-2HCD25-G4S-CDl9-hu-mROO5-1-vH-Mlu-[hTCRb-KACIAH]-F-P2A-PAC has the following modules from 5′ to 3′ direction: a CD8 signal peptide (CD8SP), the CD19 targeting hu-mROO5-1 vL fragment (CD19-hu-mROO5-1), Xho1 cloning site, human TCRa constant chain containing CSDVP mutations (hTCRa-CSDVP), Furine cleavage site (F), F2A ribosomal skip sequence (F2A), SpeI site, human IgH signal peptide (IgHSP), Apa I restriction enzyme site, camelid CD20-2HCD25-VHH module targeting CD20, BamHI restriction enzyme site, Glycinex4-serine linker (G4S), BstI restriction enzyme site, CD19-hu-mROO5-1-vH fragment targeting CD19, Mlu I restriction enzyme site, human TCRb constant chain containing KACIAH mutations ([hTCRb-KACIAH]), Furine cleavage site (F), P2A ribosomal skip sequence and Puromycin resistance gene (PAC). The sequence of the other constructs in the table can be similarly determined from their names and by referring to the different Tables of this disclosure that provide the names and SEQ ID NO of the different modules. Alternatively, the composition and modular architecture of the different SAR constructs can be determined from their sequences by bioinformatics tools, including using nucleic acid and amino acids homology searches. A SAR is considered positive in the assay in case the SAR expressing Jurkat-NFAT-GFP cells show greater % GFP positive cells when cultured with the target cell line as compared to parental Jurkat-NFAT-GFP cells. The signs +/-, +, 2+ etc. after the name of the cell lines indicate the relative degree of positivity on the Jurkat-NFAT-GFP assay as measured by the % GFP positive cells after culture of the SAR expressing Jurkat-NFAT-GFP cells with that cell line above the % GFP cells observed in parental Jurkat NFAT-GFP cells serving as controls. In general, the number +/-, +, 2+, 3+, 4+, 5+ refer to approximately 5%, 10%, 20%, 30%, 40% and 50% GFP positive cells. The % of GFP induction in the above assay is dependent not only the relative strength of the SAR but also, among other factors, on the relative level of expression of the SAR in the JNG cells and the relative level of expression of the target antigen in the target cell line. To control for the difference in gene transduction efficiency of the different SAR constructs, the experiment was conducted with JNG cells transduced with SAR constructs co-expressing a drug resistance gene (e.g., puromycin or PAC) followed by drug selection to generate a stable population of SAR-expressing cells. […]

RAJI cells = assay: JNG assay, co-culture with RAJI cells; assay type: cell-based; conditions: for GFP induction / activity: co-culture with RAJI cells; for NFAT-GFP ASSAY: Raji: JNG cells expressing construct, co-culture with Raji
Method in brief: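 Jurkat NFAT-GFP (JNG) cells stably transduced with SARs by lentivirus, with drug selection where the construct carried a resistance gene, then co-cultured with target cells at E:T ~1:2 for ~4–18 h. % GFP-positive cells measured by FACS against parental JNG; +/- to 5+ correspond to ~5–50% GFP-positive.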

| Molecule | GFP induction (LNCaP cells) | GFP induction / activity (RAJI cells) | NFAT-GFP ASSAY: LNCaP (LNCaP cells) | NFAT-GFP ASSAY: Raji (RAJI cells) |
| --- | --- | --- | --- | --- |
| B1 | induction of GFP | robust induction of GFP |  |  |
| B2 |  |  | + (refer to approximately 5%, 10%, 20%, 30%, 40% and 50% GFP positive cells) | +/- (refer to approximately 5%, 10%, 20%, 30%, 40% and 50% GFP positive cells) |
| B3 |  |  | + (refer to approximately 5%, 10%, 20%, 30%, 40% and 50% GFP positive cells) | +/- (refer to approximately 5%, 10%, 20%, 30%, 40% and 50% GFP positive cells) |
| B4 | Essentially similar results | Essentially similar results |  |  |
